In patent US20260209365A1, “ANTI-COMMON GAMMA CHAIN PROTEINS AND COMPOSITIONS OF MATTER” (SINOMAB BIOSCIENCE LIMITED, priority 2023, published 2026):

T1: human γc protein (extracellular domain) (human, UniProt P31785 23-262)
T1 construct: Purchased from Sino Biological or made in-house; Residues 1-262 may hold the signal peptide; also called human common gamma chain; purified human γc
T1 sequence: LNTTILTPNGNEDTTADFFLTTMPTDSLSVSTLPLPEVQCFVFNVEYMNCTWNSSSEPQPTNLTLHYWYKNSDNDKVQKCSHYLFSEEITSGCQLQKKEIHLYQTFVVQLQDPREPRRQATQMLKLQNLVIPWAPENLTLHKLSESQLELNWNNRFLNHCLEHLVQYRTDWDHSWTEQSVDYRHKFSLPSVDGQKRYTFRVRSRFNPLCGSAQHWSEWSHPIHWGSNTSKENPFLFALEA

T2: chimpanzee γc protein (extracellular domain), purified (chimpanzee (Pan troglodytes), UniProt P31785 23-262)
T2 construct: also called chimpanzee (Pan troglodytes) γc
T2 sequence: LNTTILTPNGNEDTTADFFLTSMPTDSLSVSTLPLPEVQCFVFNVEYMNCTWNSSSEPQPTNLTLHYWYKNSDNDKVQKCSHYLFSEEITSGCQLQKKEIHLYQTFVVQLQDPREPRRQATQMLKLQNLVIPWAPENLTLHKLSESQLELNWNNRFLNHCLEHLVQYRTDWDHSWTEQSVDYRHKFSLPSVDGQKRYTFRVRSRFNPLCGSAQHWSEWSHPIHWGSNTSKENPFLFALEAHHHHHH

T3: cynomolgus γc protein (extracellular domain), purified (cynomolgus (Macaca fascicularis), UniProt P31785 23-254 (human entry))
T3 construct: Purchased from Sino Biological or in-house; also called cynomolgus (Macaca fascicularis) γc
T3 chain: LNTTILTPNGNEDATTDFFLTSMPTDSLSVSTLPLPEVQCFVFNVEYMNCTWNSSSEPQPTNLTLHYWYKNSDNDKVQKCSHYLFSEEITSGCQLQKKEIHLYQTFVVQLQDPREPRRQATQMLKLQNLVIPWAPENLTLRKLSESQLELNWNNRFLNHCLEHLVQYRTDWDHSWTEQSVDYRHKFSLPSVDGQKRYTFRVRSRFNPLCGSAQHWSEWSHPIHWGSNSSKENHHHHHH

T4: human γc protein (extracellular domain), purified (human (Homo sapiens), UniProt P31785 23-262)
T4 construct: Either purchased from Sino Biological or in-house generated; also called human common gamma chain; CD132; not shown: which was used i
T4 sequence: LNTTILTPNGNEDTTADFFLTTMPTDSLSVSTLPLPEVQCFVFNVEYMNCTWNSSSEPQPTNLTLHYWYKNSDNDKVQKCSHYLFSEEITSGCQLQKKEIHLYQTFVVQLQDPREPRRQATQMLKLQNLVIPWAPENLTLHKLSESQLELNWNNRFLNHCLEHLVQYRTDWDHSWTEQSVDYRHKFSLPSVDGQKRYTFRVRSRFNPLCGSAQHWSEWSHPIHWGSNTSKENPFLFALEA

T5: mouse γc protein (extracellular domain) (mouse, UniProt P34902 23-263)
T5 construct: also called Mus musculus γc
T5 sequence: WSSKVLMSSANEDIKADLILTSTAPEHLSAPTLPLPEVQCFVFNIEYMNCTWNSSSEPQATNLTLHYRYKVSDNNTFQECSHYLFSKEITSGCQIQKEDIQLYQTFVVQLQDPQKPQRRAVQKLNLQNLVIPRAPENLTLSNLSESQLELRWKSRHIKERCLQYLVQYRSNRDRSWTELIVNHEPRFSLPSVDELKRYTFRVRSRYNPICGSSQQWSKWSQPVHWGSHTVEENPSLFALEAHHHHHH

T6: cynomolgus γc protein (extracellular domain) (cynomolgus, UniProt P31785 23-254 (human entry))
T6 construct: also called Macaca fascicularis γc
T6 chain: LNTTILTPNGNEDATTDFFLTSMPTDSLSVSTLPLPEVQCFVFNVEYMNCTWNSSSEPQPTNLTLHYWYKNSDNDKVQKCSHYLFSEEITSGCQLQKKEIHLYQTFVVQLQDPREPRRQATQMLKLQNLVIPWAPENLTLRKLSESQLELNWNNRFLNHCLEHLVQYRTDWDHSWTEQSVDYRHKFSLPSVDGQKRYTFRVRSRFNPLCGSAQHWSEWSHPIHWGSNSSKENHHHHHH

T7: rat γc protein (extracellular domain) (rat)
T7 chain: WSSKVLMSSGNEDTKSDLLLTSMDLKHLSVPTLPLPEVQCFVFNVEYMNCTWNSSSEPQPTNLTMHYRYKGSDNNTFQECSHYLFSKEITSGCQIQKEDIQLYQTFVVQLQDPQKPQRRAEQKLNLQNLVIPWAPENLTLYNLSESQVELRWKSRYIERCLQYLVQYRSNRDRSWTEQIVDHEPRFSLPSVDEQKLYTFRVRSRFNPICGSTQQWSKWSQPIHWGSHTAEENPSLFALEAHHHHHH

T8: common marmoset γc protein (extracellular domain) (common marmoset, UniProt P31785 26-262 (human entry))
T8 construct: also called Callithrix jacchus γc
T8 chain: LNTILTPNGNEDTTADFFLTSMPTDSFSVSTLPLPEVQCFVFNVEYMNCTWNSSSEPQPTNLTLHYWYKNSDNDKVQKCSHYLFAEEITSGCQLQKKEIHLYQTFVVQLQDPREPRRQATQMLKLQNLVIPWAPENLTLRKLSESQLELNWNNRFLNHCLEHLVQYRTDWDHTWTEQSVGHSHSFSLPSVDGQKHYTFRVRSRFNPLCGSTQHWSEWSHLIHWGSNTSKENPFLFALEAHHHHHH


Legend:
[1] = biological target: T1, human γc protein (extracellular domain); test: monoclonal phage ELISA, human γc protein; negative control
[2] = biological target: T2, chimpanzee γc protein (extracellular …); test: ELISA, strip coated with 1 µg/ml chimpanzee γc, antibody in 5-fold dilutions from 10 to 0.00064 µg/ml, OD 450 nm; sigmoid curve reaching about 1.4
Procedure: (§1) More particularly, FIG. 3A presents the binding curve of SM-05A and FIG. 3B presents the bin ding curve of SM-05E. In each example, the ELISA strip was coated with 1 μg/ml γc protein from each species and antibody was diluted 5-fold each from 10 μg/ml to 0.00064 μg/ml.
(§2) Selected clones of full-length antibodies were evaluated by ELISA to access the binding specificity.

[3] = biological target: T3, cynomolgus γc protein (extracellular …); test: ELISA, strip coated with 1 µg/ml cynomolgus γc, antibody in 5-fold dilutions from 10 to 0.00064 µg/ml, OD 450 nm; curve stays near baseline up to about 0.4 µg/ml and rises to about 1.35 at 10 µg/ml, no upper plateau
Procedure: as §1, §2

[4] = biological target: T4, human γc protein (extracellular …); test: ELISA, strip coated with 1 µg/ml human γc, antibody in 5-fold dilutions from 10 to 0.00064 µg/ml, OD 450 nm; sigmoid curve with plateau about 1.55
Procedure: as §1, §2

[5] = biological target: T5, mouse γc protein (extracellular domain); test: BLI, antibody on anti-human IgG sensors, mouse γc in solution
Procedure: (§3) Full-length humanized antibodies were evaluated by BLI to access their binding kinetics. The binding activities of full-length anti-γc antibody were investigated using γc proteins (extracellular domain) from human and common marmoset (either purchased or in-house generated). Briefly, anti-γc antibody (20 μg/mL) was immobilized on biosensors via interactions with anti-human IgG; serially diluted γc proteins (at a concentration of 158.7 nM, 79.4 Nm, 39.7n M and 0 nM respectively) were subsequently added following standard operation protocols of the Octet ReD96 system to plot out the association and dissociation curve. Irrelevant antibody (SM03, anti-human CD22 chimeric IgG1 antibody, SinoMab BioScience Limited) was used as the control reference. The KD is within the picomolar-single digit nanomolar range.

[6] = biological target: T6, cynomolgus γc protein (extracellular …); test: BLI, antibody on anti-human IgG sensors, cynomolgus γc in solution
[7] = biological target: T7, rat γc protein (extracellular domain); test: BLI, antibody on anti-human IgG sensors, rat γc in solution
[8] = biological target: T1, human γc protein (extracellular domain); test: BLI (Octet RED96), antibody on anti-human IgG sensors, γc in solution; Experiment 2
Procedure: as §3

[9] = biological target: T8, common marmoset γc protein …; test: BLI, antibody on anti-human IgG sensors, common marmoset γc in solution
Procedure: as §3

[10] = biological target: T1, human γc protein (extracellular domain); test: BLI (Octet RED96), antibody on anti-human IgG sensors, γc in solution; Experiment 1
Procedure: as §3

[11] = biological target: T3, cynomolgus γc protein (extracellular …); test: ELISA, strip coated with 1 µg/ml cynomolgus γc, antibody in 5-fold dilutions from 10 to 0.00064 µg/ml, OD 450 nm; curve stays near baseline up to about 0.08 µg/ml and rises to about 1.65 at 10 µg/ml, no upper plateau
Procedure: as §1, §2

[12] = biological target: T4, human γc protein (extracellular …); test: ELISA, strip coated with 1 µg/ml human γc, antibody in 5-fold dilutions from 10 to 0.00064 µg/ml, OD 450 nm; sigmoid curve with plateau about 1.6
Procedure: as §1, §2

[13] = biological target: T2, chimpanzee γc protein (extracellular …); test: ELISA, strip coated with 1 µg/ml chimpanzee γc, antibody in 5-fold dilutions from 10 to 0.00064 µg/ml, OD 450 nm; curve rises to about 1.5 at the last point shown
Procedure: as §1, §2

Row | Kd [5] | koff [5] | kon [5] | Kd [6] | koff [6] | kon [6] | Kd [7] | Kd [8] | koff [8] | kon [8] | Kd [9] | koff [9] | kon [9] | Kd [10] | koff [10] | kon [10] | Molecule | also measured
1 |  |  |  |  |  |  |  |  |  |  |  |  |  |  |  |  | M13KO7 (negative) | OD (450 nm) [1]: 0.045 OD
2 |  |  |  |  |  |  |  |  |  |  |  |  |  |  |  |  | SM-05A full-length chimeric anti-γc antibody (antibody, V domains shown, Full-length chimeric antibody made in Expi-CHO (mouse variable, human constant regions)) VH: EVQLQQSGPELVKPGASVKISCKTSGYTFTEYTMHWVKQSHGKSLEWIGGIDPYNGGATYNQRFKGKATLTVDKSSSTAYMEFRSLTSEDSAVYYCARRRLYYGNALDYWGQGTSVTVSS VL: DVLMTQTPLSLPVSLGDQASISCRSSQSLVHSNGNTYLHWYLQRPGQSPKLLIYKVSSRFSGVPDRFSGSGSGTDFTLKISRVEAEDLGVYFCSQTTHVPFTFGSGTKLEIKR | EC50 [2]: 0.17 µg/mL; EC50 [3]: 14.5 µg/mL; EC50 [4]: 0.02 µg/mL
3 | 108 nM | 0.000712 s⁻¹ | 6580 M⁻¹ s⁻¹ | 304 nM | 0.00683 s⁻¹ | 22500 M⁻¹ s⁻¹ | 16.1 nM | 8.23 nM | 0.00144 s⁻¹ | 175000 M⁻¹ s⁻¹ | 4.05 nM | 0.00121 s⁻¹ | 300000 M⁻¹ s⁻¹ | 2.69 nM | 0.000319 s⁻¹ | 119000 M⁻¹ s⁻¹ | hSM-05A (humanized anti-γc antibody with back-mutation) (antibody, V domains shown, Full-length humanized antibody; 199-200' and the pairing of claim 11(b); also called hbSM-05A; humanized SM-05A) VH: QVQLVQSGAEVLKPGASVKVSCKASGYTFTEYTMHWVKQARGQRLEWIGGIDPYNGGATYNQRFKGKATLTTDTSTSTAYMELRNLRSDDTAVYYCARRRLYYGNALDYWGQGTLVTVSS VL: DIVMTQSPLSLPVTPGEQASISCRSSQSLVHSNGNTYLHWYLQKPGQSPQLLIYKVSSRFSGVPDRFSGSGSGTDFTLKISRVEAEDVGVYFCSQTTHVPFTFGSGTKLEIKR | 
4 |  |  |  |  |  |  |  |  |  |  |  |  |  |  |  |  | SM-05E full-length chimeric anti-γc antibody (antibody, V domains shown, Full-length chimeric antibody made in Expi-CHO) VH: EVHLQQSGPELVKPGASVKIFCKTSGYTFTEYTMHWVKQSHGESLEWIGGIDPNTGGVTYNQKFKGKATLTADKSSSTAYMELRSLTSEDSAVYYCARRRRYYGYALDYWGQGTSVTVSS VL: DVLMTQTPLSLPVSLGDQASISCRSSQSIVHSNGNTYLEWYLQKPGQSPKLLIYKVSNRFSGVPDRFSGSGSGTDFTLKISSVEAEDLGVYFCSQSTHVPFMFGSGTKLEIKR | EC50 [11]: 6.47 µg/mL; EC50 [12]: 0.02 µg/mL; EC50 [13]: 0.17 µg/mL
5 | 66.2 nM | 0.0252 s⁻¹ | 340000 M⁻¹ s⁻¹ | 304 nM | 0.00683 s⁻¹ | 22500 M⁻¹ s⁻¹ | 29.3 nM | 2.89 nM | 0.000944 s⁻¹ | 327000 M⁻¹ s⁻¹ | 5.27 nM | 0.00175 s⁻¹ | 333000 M⁻¹ s⁻¹ | 4.82 nM | 0.000573 s⁻¹ | 119000 M⁻¹ s⁻¹ | hSM-05E (humanized anti-γc antibody with back-mutation) (antibody, V domains shown, Full-length humanized antibody; VH 198 / VL 200 tied to SM-05E only by the order '(e.g., SM-05A, SM-05E) ; 199-200' and the pairing of claim 11(d); also called hbSM-05E; humanized SM-05E) VH: QVQLVQSGAEVLKPGASVKVSCKASGYTFTEYTMHWVKQARGQRLEWIGGIDPNTGGVTYNQKFKGKATLTTDTSTSTAYMELRNLRSDDTAVYYCARRRRYYGYALDYWGQGTLVTVSS VL: DIVMTQSPLSLPVTPGEQASISCRSSQSIVHSNGNTYLEWYLQKPGQSPQLLIYKVSNRFSGVPDRFSGSGSGTDFTLKISRVEAEDVGVYFCSQSTHVPFMFGSGTKLEIKR | koff [7]: 0.00208 s⁻¹; kon [7]: 71000 M⁻¹ s⁻¹
